Measurements reported in US20080274117A1.

Biological target: DBD-TSSK2 (myc tagged): human TSSK2 ORF fused with the Gal4 DNA-binding domain (pGBK-TSSK2) (human)
Assay: cell-based or functional assay

Q: Which alpha-galactosidase activity as percentage of full length TSKS (% reduction against full length TSKS) does the source give for “TSKS deletion mutant lacking the carboxyl terminus and second coiled-coil region, fused with the Gal4 activation domain (pGAD) (from UniProt P04386 768-881)” here?
A: 75

Q: Which alpha-galactosidase activity as percentage of full length TSKS (% of full length TSKS) does the source give for “TSKS deletion mutant lacking the first 48 amino acids, fused with the Gal4 activation domain (pGAD) (from UniProt Q9UJT2 49-592)” here?
A: 5
